Reference: the supplement of paper PMC9732359
± gives the uncertainty stated by the source.

Experiment: protein stability index of a GFP-peptide fusion (yeast GPS) (PSI 1-4); higher = more stable; sorted into four equal gates, so the index is relative within each strain
In short: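 The protein stability index combines read frequencies across sorting gates, each weighted by its gate number and then summed. To obtain those frequencies, a pooled yeast library of GFP fusions to tiled 17-residue yeast protein peptides, on a plasmid also expressing Cherry, was grown to mid-log phase in leucine-free medium. The cells were sorted into four equal gates by GFP/Cherry ratio before plasmid amplification by PCR and Illumina sequencing.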

Row | Sequence | protein stability index (doa10∆) | protein stability index (pdr5∆) | protein stability index (san1∆) | protein stability index (ubr1∆)
1 | TEFEFYLLEELESYLIV [SSN8] | 2.63 ± 0.099 | 2.72 ± 0.087 | 3.21 ± 0.12 | 2.72 ± 0.064
2 | ERGHPKDNARIYQVPEK [POP1] | 3.02 ± 0.082 | 3.02 ± 0.1 | 3 ± 0.093 | 3.11 ± 0.05
3 | GDNTSDVDMEDRNLTEF [RRI1] |  | 3.08 ± 0.13 | 3.27 ± 0.18 | 3.19 ± 0.058
4 | MNEMCKKINAKEKLIGW [RPN8] | 2.86 ± 0.043 | 3.13 ± 0.056 | 3.03 ± 0.046 | 3.08 ± 0.031
5 | VGKFLGYVSSLVEPSKV [FAS1] | 1.71 ± 0.064 | 2.14 ± 0.072 | 1.69 ± 0.12 | 1.89 ± 0.052
6 | MELLTQMDGFDNLGQTK [RPT4] | 3.53 ± 0.09 | 3.56 ± 0.11 | 3.65 ± 0.081 | 3.44 ± 0.079
7 | EETYEEKPQFKDGETTD [RPO26] | 3.24 ± 0.23 | 2.98 ± 0.28 | 3.47 ± 0.19 | 3.34 ± 0.14
8 | RRRTYRAHGRINKYESS [RPL17A] | 1.87 ± 0.2 | 2.37 ± 0.094 | 1.9 ± 0.13 | 2.05 ± 0.065
9 | QEQLKNVKNDVSFNDSQ [YIL149C/MLP2] | 3.27 ± 0.061 | 3.5 ± 0.066 | 3.08 ± 0.083 | 3.31 ± 0.053
10 | EFIAAVNNPQEETSHLL [RPN10] | 2.33 ± 0.12 | 3 ± 0.091 | 3 ± 0.14 | 2.82 ± 0.068
11 | VNDRYQIPTPNNTVDPG [CSI1] | 1.44 ± 0.059 | 1.71 ± 0.075 | 1.71 ± 0.13 | 1.55 ± 0.048
12 | CFSQENIEEMARVILYL [SIN4] | 2.47 ± 0.083 | 2.76 ± 0.14 | 2.79 ± 0.095 | 2.76 ± 0.054
13 | GAAANNNDQKRQQAYKT [YJL041W/NSP1] | 3.06 ± 0.063 | 3.02 ± 0.056 | 3.09 ± 0.042 | 3.22 ± 0.066
14 | QHQRIVAFVCSPISDSR [RPN10] | 1.92 ± 0.097 | 3.12 ± 0.11 | 1.48 ± 0.15 | 2.3 ± 0.16
15 | YYLWTGKQVFSLLIKPN [RPO31] | 1.53 ± 0.21 |  |  | 1.59 ± 0.2
16 | DQEKKYGMSITETFEKP [RPB2] | 2.85 ± 0.11 | 3.4 ± 0.18 | 3.15 ± 0.096 | 3.5 ± 0.1
17 | DVTAIQTWSYLSLYSTD [ECM29] | 1.52 ± 0.038 | 1.91 ± 0.036 | 1.9 ± 0.055 | 1.92 ± 0.036
18 | FKYRKARLEPGTAIGAI [RPO31] | 2.73 ± 0.16 | 1.99 ± 0.092 | 2.17 ± 0.1 | 2.33 ± 0.057
19 | DHHPEGLSAREAVKQAA [PRE10] | 3.02 ± 0.095 | 2.53 ± 0.066 | 2.67 ± 0.082 | 2.69 ± 0.049
20 | DEATVPNTRDAESEAIT [SWI3] | 3.09 ± 0.077 | 3.15 ± 0.06 | 3.18 ± 0.066 | 3.23 ± 0.052
21 | IDRPKHELSRAELEELE [SMD2] | 3.27 ± 0.083 | 3.27 ± 0.15 | 3.32 ± 0.07 | 3.38 ± 0.1
22 | VGRRAANLRVLNSYWVN [RPL15A] | 1.97 ± 0.062 | 1.71 ± 0.072 | 1.91 ± 0.11 | 1.69 ± 0.07
23 | NYEDVGRFLRVPKEGLF [BRR2] | 3.42 ± 0.076 | 3.5 ± 0.11 | 3.42 ± 0.078 | 3.49 ± 0.064
24 | EHHSSVKYASPNLNMKY [FAS2] | 3.17 ± 0.068 | 3 ± 0.06 | 2.94 ± 0.054 | 2.92 ± 0.04
25 | SASDALKGRVVEVCLAD [RPS1A] | 2.46 ± 0.06 | 2.82 ± 0.093 | 2.35 ± 0.081 | 2.43 ± 0.055
26 | PAFTFGAQKDNEKKTEE [YJL041W/NSP1] | 3.35 ± 0.2 | 2.64 ± 0.28 | 3.11 ± 0.26 | 3.46 ± 0.2
27 | LSVEIGVLTDISSLIGG [NUT1] | 1.32 ± 0.13 | 1.95 ± 0.11 | 1.89 ± 0.25 | 2.18 ± 0.12
28 | LYKFQNFQDLSYLSETL [YML103C/NUP188] | 2.94 ± 0.091 | 2.87 ± 0.08 | 2.64 ± 0.12 | 2.49 ± 0.11

Row | Sequence | protein stability index (doa10∆) | protein stability index (pdr5∆) | protein stability index (san1∆) | protein stability index (ubr1∆)
29 | LNTLLVTSADSNLKISL [SWI1] | 2.71 ± 0.078 | 2.9 ± 0.065 | 2.89 ± 0.054 | 2.52 ± 0.08
30 | DELMVIYISNLVRSIIA [RPN8] | 2.44 ± 0.28 | 3.22 ± 0.17 |  | 3.24 ± 0.11
31 | SKNSKLSIICVGGHNVT [SIR3] | 1.71 ± 0.069 | 1.57 ± 0.039 | 1.39 ± 0.081 | 1.52 ± 0.041
32 | IVACELILSGDTTANNG [YJL039C/NUP192] | 2.66 ± 0.067 | 2.46 ± 0.068 | 2 ± 0.077 | 1.7 ± 0.032
33 | ALELDDTVVSRVNEMVQ [ECM29] | 3.16 ± 0.17 |  |  | 3.16 ± 0.1
34 | TPLRDEVTDKNYYYLFD [PRP8] | 2.98 ± 0.068 | 2.55 ± 0.049 | 3.03 ± 0.048 | 3.11 ± 0.059
35 | INQEKPVKLDENSANST [SIR4] |  |  | 3.51 ± 0.18 | 
36 | LGKAQNWAKFTATASLG [RPN2] | 2.55 ± 0.059 | 2.56 ± 0.059 | 2.18 ± 0.069 | 2.28 ± 0.065
37 | STSGDPSEFHCLQDALD [SSN2] | 3.07 ± 0.16 | 3.1 ± 0.12 | 3.08 ± 0.068 | 3.43 ± 0.11
38 | LKTLVQGPRSYFLDVKC [RPS27A] | 3.08 ± 0.076 | 3.21 ± 0.13 | 2.72 ± 0.12 | 2.99 ± 0.075
39 | DRCVDPEDPYFNTLVRI [DIS3] | 3.39 ± 0.11 | 3.41 ± 0.11 | 3.48 ± 0.058 | 3.4 ± 0.048
40 | IRTRRAAELLDKRIVIS [DIS3] | 1.5 ± 0.11 | 1.81 ± 0.1 | 1.51 ± 0.17 | 1.84 ± 0.1
41 | DSEKHIDFAPTSPFGGA [RPS9A] | 2.6 ± 0.06 | 2.65 ± 0.06 | 2.69 ± 0.068 | 2.68 ± 0.041
42 | QGFSKDTFELIKTFLVD [YDL116W/NUP84] | 3.02 ± 0.079 | 3.26 ± 0.063 | 2.75 ± 0.062 | 3.25 ± 0.043
43 | AKKLIQSLPPTLKVNRL [RPL38] | 2.15 ± 0.039 | 2.2 ± 0.039 | 2.02 ± 0.048 | 2.27 ± 0.036
44 | ERTKQRTAKAYLKVSEE [PRP8] | 3.08 ± 0.093 | 3.12 ± 0.11 | 3.27 ± 0.056 | 3.34 ± 0.057
45 | HPKIVKKHTKKFKRHHS [RPL32] | 2.74 ± 0.054 | 3.06 ± 0.059 | 2.66 ± 0.045 | 3.02 ± 0.037
46 | SLGIAQPKGVILYGPPG [RPT6] | 2.71 ± 0.061 | 2.89 ± 0.072 | 2.77 ± 0.089 | 2.91 ± 0.077
47 | SVPIWVDTSTELESMLE [RRP6] | 3.07 ± 0.12 | 3.28 ± 0.16 | 3.06 ± 0.063 | 2.96 ± 0.085
48 | DQSISKLQSWDKVSSCF [NNF1] | 1.51 ± 0.072 | 1.59 ± 0.069 | 1.42 ± 0.1 | 1.82 ± 0.053
49 | VKVLAATNRVDVLDPAL [RPT5] | 3.08 ± 0.099 | 2.84 ± 0.1 | 3.02 ± 0.075 | 2.89 ± 0.071
50 | LKILKQVMEEKLDENNA [PUP2] |  |  | 2.8 ± 0.23 | 
51 | KQSGFGGQTKPVFHKKA [RPL42A] | 2.74 ± 0.04 | 3.14 ± 0.053 | 2.89 ± 0.043 | 3.045 ± 0.029
52 | KRKVLELKKKRKIKRLE [SRP72] | 3.24 ± 0.077 | 3.2 ± 0.095 | 3.38 ± 0.1 | 3.29 ± 0.058
53 | TRAKAKVEEMNNIIAAS [RPL36A] |  | 3.18 ± 0.14 |  | 
54 | SPTESYSDIGGLESQIQ [RPT2] | 3.3 ± 0.14 | 3.53 ± 0.14 | 3.41 ± 0.06 | 3.29 ± 0.076
55 | DDSANIVNVNFMKSVIR [DIS3] | 2.92 ± 0.051 | 3.1 ± 0.06 | 3.06 ± 0.069 | 3.03 ± 0.044
